Reference: the supplement of paper PMC10201428
± gives the standard deviation of the averaged measurements.

B1: library; a variant is named by its letters at N, in order (parent)
chain: AATGTTGTTGATGCAACCATAAAGTGATATTTAATAATTATTTATAATCAGCAACTTAACCACAAAACAACCATATATTGATATNTCACAAAACAACCATAANTTGATATTTTTGTGAATCGAGTATTTCAGCAAAACTACTGCAGTAAGAA

Experiments:
[1] = variants of: B1; experiment: relative integration efficiency (T-LR orientation) vs wild-type transposon end (log2 (normalized fold change)); transposon end mutated: left end; higher = more efficient transposition; conditions: with VchCAST RNA-guided transposition machinery (E. coli BL21(DE3) host, lacZ target)
Outline: (§1)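 Relative integration efficiency is a fold change of output over input barcode abundance, normalised to reference barcodes and log-transformed. Input plasmids and genomic integration junctions were PCR-amplified and Illumina-sequenced from E. coli BL21(DE3) co-transformed with a T7-driven effector plasmid and pUC57 donor pools of 1549 left-end or 1849 right-end transposon variants. Plating was done with 0.1 mM IPTG at 37°C for 18 h, with two biological output replicates and four reference barcodes.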

[2] = variants of: B1; experiment: relative integration efficiency (T-RL orientation) vs wild-type transposon end (log2 (normalized fold change)); transposon end mutated: left end; higher = more efficient transposition; conditions: with VchCAST RNA-guided transposition machinery (E. coli BL21(DE3) host, lacZ target)
Outline: as §1

AATGTTGTTGATGCAACCATAAAGTGATATTTAATAATTATTTATAATCAGCAACTTAACCACAAAACAACCATAAAGTGATATTTAACAAAACAACCATAAAGTGATATTTATGTGAATCGAGTATTTCAGCAAAACTACTGCAGTAAGAA [TA T76A T78G C87A T104G T113A]
relative integration efficiency (log2) [1]: -0.127 ± 0.0086
relative integration efficiency (log2) [2]: -0.3 ± 0.22

AATGTTGTTGATGCAACCATAAAGTGATATTTAATAATTATTTATAATCAGCAACTTAACCACAAAACAACCATATATTGATATCTCACAAAACAACCATAAGTTGATATTTCTGTGAATCGAGTATTTCAGCAAAACTACTGCAGTAAGAA [CG T113C]
relative integration efficiency (log2) [1]: 0.405 ± 0.02
relative integration efficiency (log2) [2]: 0.263 ± 0.16

AATGTTGTTGATGCAACCATAAAGTGATATTTAATAATTATTTATAATCAGCAACTTAACCACAAAACAACCATATATTGATATCTCACAAAACAACCATAAGTTGATATTTGTGTGAATCGAGTATTTCAGCAAAACTACTGCAGTAAGAA [CG T113G]
relative integration efficiency (log2) [1]: 0.451 ± 0.17
relative integration efficiency (log2) [2]: -0.0711 ± 0.12

AATGTTGTTGATGCAACCATAAAGTGATATTTAATAATTATTTATAAAGTCCAACTTAACCACAAAACAACCATATATTGATATCTCACAAAACAACCATAAGTTGATATTTTTGTGAATCGAGTATTTCAGCAAAACTACTGCAGTAAGAA [CG T48A C49G A50T G51C]
relative integration efficiency (log2) [1]: -2.64 ± 0.41
relative integration efficiency (log2) [2]: -2.28 ± 0.62

AATGTTGTTGATGCAACCATAAAGTGATATTTAATAATTATTATTAATCAGCAACTTAACCACAAAACAACCATATATTGATATCTCACAAAACAACCATAAGTTGATATTTTTGTGAATCGAGTATTTCAGCAAAACTACTGCAGTAAGAA [CG T43A A44T]
relative integration efficiency (log2) [1]: 0.162 ± 0.35
relative integration efficiency (log2) [2]: -0.0354 ± 0.012

AATGTTGTTGATGCAACCATAAAGTGATATTTAATAATTATTTATAATCAGCAACTTAACCACAAAACAACCATATATTGATATCTCAAAAAACAACCATAAGTTGATATTTTTGTGAATCGAGTATTTCAGCAAAACTACTGCAGTAAGAA [CG C89A]
relative integration efficiency (log2) [1]: 0.447 ± 0.3
relative integration efficiency (log2) [2]: 0.031 ± 0.013

AATGTTGTTGATGCAACCATAAAGTCATATTTAATAATTATTTATAATCAGCAACTTAACCACAAAACAACCATATATTGATATCTCACAAAACAACCATAAGTTGATATTTTTGTGAATCGAGTATTTCAGCAAAACTACTGCAGTAAGAA [CG G26C]
relative integration efficiency (log2) [1]: -1.96 ± 1.7
relative integration efficiency (log2) [2]: -1.36 ± 0.65

AATGTTGTTGATGCACCCATAAATTGATAATTAATAATTATTTATAATCAGCAACTTAACCACAAAACACCCATAAATTGATATTGCACAAAACACCCATAAATTGATATTGCTGTGAATCGAGTATTTCAGCAAAACTACTGCAGTAAGAA [TA A16C G24T T30A A70C T76A T86G A96C T112G T113C]
relative integration efficiency (log2) [1]: -0.394 ± 0.73
relative integration efficiency (log2) [2]: -0.421 ± 0.27

AATGTTGTTGATGCAACCATAAAATGATAATTAATAATTATTTATAATCAGCAACTTAACCACAAAACAACCATAAAATGATAATTAACAAAACACCCATAAATTGATATTGCTGTGAATCGAGTATTTCAGCAAAACTACTGCAGTAAGAA [TA G24A T30A T76A T78A T84A C87A A96C T112G T113C]
relative integration efficiency (log2) [1]: 0.461 ± 0.4
relative integration efficiency (log2) [2]: 0.172 ± 0.12

AATGTTGTTGATGCAACCATAAGTTGATATTTTATAATTATTTATAATCAGCAACTTAACCACAAAACAACCATAAAATGATAATTAACAAAACAACCATAAGTTGATATTTTTGTGAATCGAGTATTTCAGCAAAACTACTGCAGTAAGAA [TG A23G G24T A33T T76A T78A T84A C87A]
relative integration efficiency (log2) [1]: 0.325 ± 0.22
relative integration efficiency (log2) [2]: 0.0428 ± 0.34

AATGTTGTTGATGCAACCATAAAGTGAAATTTAATAATTATTTATAATCAGCAACTTAACCACAAAACAACCATATATTGAAATCTCACAAAACAACCATAAGTTGAAATTTTTGTGAATCGAGTATTTCAGCAAAACTACTGCAGTAAGAA [CG T28A T82A T108A]
relative integration efficiency (log2) [1]: -2.22 ± 2.1
relative integration efficiency (log2) [2]: -1.09 ± 0.57

AATGTTGTTGATGCACAACTAAAGTGATATTTAATAATTATTTATAATCAGCAACTTAACCACAAAACAACCATATATTGATATCTCACAAAACAACCATAAGTTGATATTTTTGTGAATCGAGTATTTCAGCAAAACTACTGCAGTAAGAA [CG A16C C17A C18A A19C]
relative integration efficiency (log2) [1]: -3.65 ± 3.1
relative integration efficiency (log2) [2]: -2.24 ± 0.77

AATGTTGTTGATGCAACCATAAAGTGATATTTAATAATTATTTATAATCAGCAACTTAACCACAAAACAACCATATATTGATATCTCACAAAACAACTATAAGTTGATATTTTTGTGAATCGAGTATTTCAGCAAAACTACTGCAGTAAGAA [CG C98T]
relative integration efficiency (log2) [1]: -0.0503 ± 0.61
relative integration efficiency (log2) [2]: -0.178 ± 0.14

AATGTTGTTGATGCAACCATAAAGTGATATTTAATAATTATTTATAATCAGCAACTTCACCACAAAACAACCATATATTGATATCTCACAAAACAACCATAAGTTGATATTTTTGTGAATCGAGTATTTCAGCAAAACTACTGCAGTAAGAA [CG A58C]
relative integration efficiency (log2) [1]: -0.0754 ± 0.25
relative integration efficiency (log2) [2]: -0.223 ± 0.17

AATGTTGTTGATGCAACCATAAAGTGATATTTAATAATTATTTATAATCAGCAACTTAACCACAAAACAACCATATATTGATATCTCACAAAACAACCATAAGTTGATATTTTTGTGATACGAGTATTTCAGCAAAACTACTGCAGTAAGAA [CG A119T T120A]
relative integration efficiency (log2) [1]: -0.0736 ± 0.29
relative integration efficiency (log2) [2]: -0.226 ± 0.056

AATGTTGTTGATGCAACCATAAAGTGATATTTAATAATTATTTATAATCAGCAACTTAACCACAAAACAACCATATATTGATATCTCACAAAACAACCATAAGTTGATATTTTTTGTCATCGAGTATTTCAGCAAAACTACTGCAGTAAGAA [CG G115T T116G G117T A118C]
relative integration efficiency (log2) [1]: -0.131 ± 0.19
relative integration efficiency (log2) [2]: -0.00966 ± 0.025

AATGTTGTTGATGCAACCATAAAATGATAATTAATAATTATTTATAATCAGCAACTTAACCACAAAACAACCATAAAGTGATATTTAACAAAACAACCATAAGTTGATATTTTTGTGAATCGAGTATTTCAGCAAAACTACTGCAGTAAGAA [TG G24A T30A T76A T78G C87A]
relative integration efficiency (log2) [1]: 0.0926 ± 0.5
relative integration efficiency (log2) [2]: 0.0283 ± 0.13

AATGTTGTTGATGCAACCATAAAGTGATATTTAATAATTAAAATTAATCAGCAACTTAACCACAAAACAACCATATATTGATATCTCACAAAACAACCATAAGTTGATATTTTTGTGAATCGAGTATTTCAGCAAAACTACTGCAGTAAGAA [CG T41A T42A T43A A44T]
relative integration efficiency (log2) [1]: 0.249 ± 0.14
relative integration efficiency (log2) [2]: 0.195 ± 0.17

AATGTTGTTGATGCAACCATAAAGTGATATTTAATAATTATTTATAATCAGCAACTTAACCACAAAACAACCACATATTGATATCTCACAAAACAACCATAAGTTGATATTTTTGTGAATCGAGTATTTCAGCAAAACTACTGCAGTAAGAA [CG T74C]
relative integration efficiency (log2) [1]: -0.976 ± 1.2
relative integration efficiency (log2) [2]: -1.33 ± 0.63
